# Measured values as given in paper PMC11025564 (The journal of physical chemistry. B, 2018).
# Positions count from the first letter of the chain named. Names may count otherwise.
# T1: integrin β3(P685-F727) TM peptide C687S W715I (human, UniProt P05106 711-753, C687S | W715I)
# T1 chain (looked up): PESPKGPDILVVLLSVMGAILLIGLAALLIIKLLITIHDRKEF
# T2: human integrin β3(P685-F727) TM peptide incorporating β3(C687S) (human, UniProt P05106 711-753, C687S)
# T2 chain (looked up): T1 chain (looked up) with I31W
# T3: integrin β3(P685-F727) TM peptide C687S W715H (human, UniProt P05106 711-753, C687S | W715H)
# T3 chain (looked up): T1 chain (looked up) with I31H
# T4: integrin β3(P685-F727) TM peptide C687S W715A (human, UniProt P05106 711-753, C687S | W715A)
# T4 chain (looked up): T1 chain (looked up) with I31A
# T5: integrin β3(P685-F727) TM peptide C687S W715Y (human, UniProt P05106 711-753, C687S | W715Y)
# T5 chain (looked up): T1 chain (looked up) with I31Y
# T6: integrin β3(P685-F727) TM peptide C687S W715F (human, UniProt P05106 711-753, C687S | W715F)
# T6 chain (looked up): T1 chain (looked up) with I31F
# B1: integrin αIIb(A958-P998) TM peptide W988H/W967V (peptide, UniProt P08514 989-1029, looked up)
# chain: ALEERAIPIVWVLVGVLGGLLLLTILVLAMHKVGFFKRNRP
# B2: integrin αIIb(A958-P998) TM peptide W967V/W968V/W988H (peptide, UniProt P08514 989-1029, looked up)
# chain: B1 chain with W11V
# B3: human integrin αIIb(A958-P998) TM peptide (peptide)
# chain: not shown
# B4: integrin αIIb(A958-P998) TM peptide W967A/W968V (peptide, UniProt P08514 989-1029, looked up)
# chain: B1 chain with V10A, W11V, H31W
# B5: integrin αIIb(A958-P998) TM peptide W967F (peptide)
# chain: not shown
# B6: integrin αIIb(A958-P998) TM peptide W967F/W968V (peptide, UniProt P08514 989-1029, looked up)
# chain: B1 chain with V10F, W11V, H31W
# B7: integrin αIIb(A958-P998) TM peptide W967H (peptide)
# chain: not shown
# B8: integrin αIIb(A958-P998) TM peptide W967H/W968V (peptide, UniProt P08514 989-1029, looked up)
# chain: B1 chain with V10H, W11V, H31W
# B9: integrin αIIb(A958-P998) TM peptide W967V (peptide)
# chain: not shown
# B10: integrin αIIb(A958-P998) TM peptide W967V/W968V (peptide, UniProt P08514 989-1029, looked up)
# chain: B1 chain with W11V, H31W
# B11: integrin αIIb(A958-P998) TM peptide W967Y (peptide)
# chain: not shown
# B12: integrin αIIb(A958-P998) TM peptide W967Y/W968V (peptide, UniProt P08514 989-1029, looked up)
# chain: B1 chain with V10Y, W11V, H31W
# B13: integrin αIIb(A958-P998) TM peptide W968V (peptide, UniProt P08514 989-1029, looked up)
# chain: B1 chain with V10W, W11V, H31W
# B14: integrin αIIb(A958-P998) TM peptide W988A (peptide, UniProt P08514 989-1029, looked up)
# chain: B1 chain with V10W, H31A
# B15: integrin αIIb(A958-P998) TM peptide W988F (peptide, UniProt P08514 989-1029, looked up)
# chain: B1 chain with V10W, H31F
# B16: integrin αIIb(A958-P998) TM peptide W988H (peptide, UniProt P08514 989-1029, looked up)
# chain: B1 chain with V10W
# B17: integrin αIIb(A958-P998) TM peptide W988V (peptide, UniProt P08514 989-1029, looked up)
# chain: B1 chain with V10W, H31V
# B18: integrin αIIb(A958-P998) TM peptide W988Y (peptide, UniProt P08514 989-1029, looked up)
# chain: B1 chain with V10W, H31Y
# Molecular target: T1, integrin β3(P685-F727) TM peptide C687S …
# Test: intrinsic tryptophan fluorescence emission
row,Binder,binding result
1,B1,binds

# Molecular target: T2, human integrin β3(P685-F727) TM peptide …
# Test: intrinsic tryptophan fluorescence emission
row,Binder,binding result
1,B2,binds

# Molecular target: T1, integrin β3(P685-F727) TM peptide C687S …
# Test: ITC
Binder,KXY (association equilibrium constant on the mole fraction scale),dH
B3,2600 ± 70,-9.6 ± 0.1 kcal/mol

# Molecular target: T3, integrin β3(P685-F727) TM peptide C687S …
# Test: ITC
Binder,KXY (association equilibrium constant on the mole fraction scale),dH
B3,820 ± 40,-8.7 ± 0.2 kcal/mol

# Molecular target: T4, integrin β3(P685-F727) TM peptide C687S …
# Test: ITC
Binder,KXY (association equilibrium constant on the mole fraction scale),dH
B3,1300 ± 40,-15.5 ± 0.3 kcal/mol

# Molecular target: T5, integrin β3(P685-F727) TM peptide C687S …
# Test: ITC
Binder,KXY (association equilibrium constant on the mole fraction scale),dH
B3,1320 ± 40,-14.2 ± 0.2 kcal/mol

# Molecular target: T6, integrin β3(P685-F727) TM peptide C687S …
# Test: ITC
Binder,KXY (association equilibrium constant on the mole fraction scale),dH
B3,2230 ± 50,-17.2 ± 0.2 kcal/mol

# Molecular target: T2, human integrin β3(P685-F727) TM peptide …
# Test: ITC
Binder,KXY (association equilibrium constant on the mole fraction scale),dH
B3,3250 ± 60,-16 ± 0.1 kcal/mol
B4,6400 ± 200,-18.4 ± 0.2 kcal/mol
B5,4030 ± 90,-12.6 ± 0.1 kcal/mol
B6,6500 ± 200,-15.7 ± 0.2 kcal/mol
B7,2530 ± 50,-15.4 ± 0.1 kcal/mol
B8,7000 ± 200,-14.9 ± 0.2 kcal/mol
B9,4450 ± 80,-13.1 ± 0.1 kcal/mol
B10,2680 ± 60,-17.8 ± 0.2 kcal/mol
B11,4700 ± 100,-13.7 ± 0.2 kcal/mol
B12,9800 ± 400,-14 ± 0.2 kcal/mol
B13,13200 ± 600,-14.3 ± 0.2 kcal/mol
B14,3320 ± 70,-17.3 ± 0.1 kcal/mol
B15,1000 ± 20,-16.4 ± 0.2 kcal/mol
B16,3540 ± 40,-16.4 ± 0.1 kcal/mol
B17,2900 ± 100,-13.7 ± 0.2 kcal/mol
B18,2320 ± 50,-19.2 ± 0.2 kcal/mol
